Laboratory results taken from patent US20160317644A1.
Where two headings read alike, the source gives them in different places.

B1: Dengue virus type 2 (DEN2; 16681) nonstructural protein 1 (NS1), recombinant, full-length, glycosylated, P29990 776-1127 (protein)
chain: DSGCVVSWKNKELKCGSGIFITDNVHTWTEQYKFQPESPSKLASAIQKAHEEGICGIRSVTRLENLMWKQITPELNHILSENEVKLTIMTGDIKGIMQAGKRSLRPQPTELKYSWKTWGKAKMLSTESHNQTFLIDGPETAECPNTNRAWNSLEVEDYGFGVFTTNIWLKLKEKQDVFCDSKLMSAAIKDNRAVHADMGYWIESALNDTWKIEKASFIEVKNCHWPKSHTLWSNGVLESEMIIPKNLAGPVSQHNYRPGYHTQITGPWHLGKLEMDFDFCDGTTVVVTEDCGNRGPSLRTTTASGKLITEWCCRSCTLPPLRYRGEDGCWYGMEIRPLKEKEENLVNSLVTA

Columns and labels:
[1] = biological target: transmembrane proteins of the replication complex; test: cell-based or functional assay
[2] = biological target: transmembrane proteins of the replication complex; test: cell-based or functional assay; remark: listed apart in the source

Row | Molecule | Plaque size [1] [mm] | Titer (PFU/mL) [1] [PFU/mL] | Plaque size [2] [mm] | Titer (PFU/mL) [2] [PFU/mL]
1 | DEN2 NS1 F160A (from UniProt P29990 776-1127) | 1 | 6000 |  | 
2 | B1 |  |  | 3 | 4.8e+06
